The results in this text go back to paper PMC4279225 (Molecular Biology of the Cell, 2015).

Series [1] deals with the molecule itself. In words: SEC.
In series [2] the target is T1, Recombinant wild-type septin complex Pnut-Sep2-Sep1 (His tag removed) (Drosophila melanogaster, UniProt P40797 1-539; P54359 1-419; P42207 1-361).
T1 sequence (looked up) 1: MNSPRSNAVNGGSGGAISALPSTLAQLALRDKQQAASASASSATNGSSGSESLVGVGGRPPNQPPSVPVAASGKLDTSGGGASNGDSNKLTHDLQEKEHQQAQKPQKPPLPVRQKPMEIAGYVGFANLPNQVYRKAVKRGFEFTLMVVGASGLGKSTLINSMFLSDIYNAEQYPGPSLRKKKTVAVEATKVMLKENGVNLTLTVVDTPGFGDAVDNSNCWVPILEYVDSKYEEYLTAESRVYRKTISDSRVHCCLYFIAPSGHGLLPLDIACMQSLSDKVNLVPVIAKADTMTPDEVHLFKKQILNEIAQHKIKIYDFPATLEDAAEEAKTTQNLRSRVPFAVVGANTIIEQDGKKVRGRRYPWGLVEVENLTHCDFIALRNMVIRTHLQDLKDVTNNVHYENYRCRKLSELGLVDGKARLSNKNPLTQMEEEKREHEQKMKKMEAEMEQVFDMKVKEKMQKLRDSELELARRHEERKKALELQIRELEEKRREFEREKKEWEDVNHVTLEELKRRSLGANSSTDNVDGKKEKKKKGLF
T1 sequence (looked up) 2: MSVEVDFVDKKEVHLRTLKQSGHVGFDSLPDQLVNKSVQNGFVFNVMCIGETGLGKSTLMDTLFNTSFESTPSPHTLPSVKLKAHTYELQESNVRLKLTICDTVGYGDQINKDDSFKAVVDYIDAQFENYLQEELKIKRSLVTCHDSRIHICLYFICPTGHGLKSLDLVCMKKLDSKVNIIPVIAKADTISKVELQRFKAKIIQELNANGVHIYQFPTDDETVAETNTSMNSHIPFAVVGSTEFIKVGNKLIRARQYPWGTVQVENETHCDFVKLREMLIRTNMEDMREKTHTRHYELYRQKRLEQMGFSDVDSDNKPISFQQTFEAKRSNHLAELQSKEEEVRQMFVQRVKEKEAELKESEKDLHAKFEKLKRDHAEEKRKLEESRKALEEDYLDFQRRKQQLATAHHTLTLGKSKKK
T1 sequence (looked up) 3: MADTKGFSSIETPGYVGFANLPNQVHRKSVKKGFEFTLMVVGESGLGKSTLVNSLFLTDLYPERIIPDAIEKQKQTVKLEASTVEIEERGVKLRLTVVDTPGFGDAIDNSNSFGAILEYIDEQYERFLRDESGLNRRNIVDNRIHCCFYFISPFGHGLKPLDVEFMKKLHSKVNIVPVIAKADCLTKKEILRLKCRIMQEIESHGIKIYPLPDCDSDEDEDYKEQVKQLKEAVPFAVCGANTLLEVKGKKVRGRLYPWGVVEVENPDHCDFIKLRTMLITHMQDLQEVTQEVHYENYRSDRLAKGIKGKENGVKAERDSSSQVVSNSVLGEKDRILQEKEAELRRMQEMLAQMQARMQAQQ
The series is described as follows: negative-stain EM with Ni-NTA Nanogold labelling.

In series [3] the target is T2, His-GFP-Orc6, wild type (Drosophila, UniProt Q9Y1B2 1-257).
T2 sequence (looked up): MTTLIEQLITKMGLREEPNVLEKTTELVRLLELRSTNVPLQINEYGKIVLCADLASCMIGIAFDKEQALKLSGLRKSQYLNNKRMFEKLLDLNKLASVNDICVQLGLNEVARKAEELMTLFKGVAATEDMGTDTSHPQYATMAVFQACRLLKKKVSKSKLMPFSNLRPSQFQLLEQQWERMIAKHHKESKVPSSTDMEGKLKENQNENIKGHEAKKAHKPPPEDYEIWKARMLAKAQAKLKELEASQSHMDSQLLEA
The series is described as follows: fluorescence polarisation.

For series [4], the target named is T3, GST-Orc6, wild type (Drosophila, UniProt Q9Y1B2 1-257).
T3 sequence (looked up): T2 sequence (looked up)
The series is described as follows: pull-down.

B1: His-Orc6, wild type, Orc6-wt (1–257) (natural protein, Drosophila, UniProt Q9Y1B2 1-257, looked up)
chain: T2 sequence (looked up)
With B1, the “stoichiometry N” value is 2 in series [1] and 2.26 ± 0.34 Nanogold particles (His-Orc6 molecules) per septin hexamer in series [2].

B2: His-Orc6 Δ(1–186), N-terminus deletion (domain or fragment, Drosophila, UniProt Q9Y1B2 187-257, looked up)
chain: KESKVPSSTDMEGKLKENQNENIKGHEAKKAHKPPPEDYEIWKARMLAKAQAKLKELEASQSHMDSQLLEA
B2: the binding result in series [2] is “binds”.

B3: His-Orc6 Δ(200–257), Orc6 with truncated C-terminus (domain or fragment, Drosophila, UniProt Q9Y1B2 1-199, looked up)
chain: MTTLIEQLITKMGLREEPNVLEKTTELVRLLELRSTNVPLQINEYGKIVLCADLASCMIGIAFDKEQALKLSGLRKSQYLNNKRMFEKLLDLNKLASVNDICVQLGLNEVARKAEELMTLFKGVAATEDMGTDTSHPQYATMAVFQACRLLKKKVSKSKLMPFSNLRPSQFQLLEQQWERMIAKHHKESKVPSSTDMEG
As to B3, the binding result in series [3], in series [1] and in series [4] was “binds” in each case.

By stoichiometry N is commonly meant a count of units in the complex or per binding partner.
